Assay results published in article PMC4050180 (FEBS Open Bio, 2014).

T1: 6xHis-TF-DGKα-C1 domains (porcine, UniProt P20192 196-362)
T1 sequence (looked up): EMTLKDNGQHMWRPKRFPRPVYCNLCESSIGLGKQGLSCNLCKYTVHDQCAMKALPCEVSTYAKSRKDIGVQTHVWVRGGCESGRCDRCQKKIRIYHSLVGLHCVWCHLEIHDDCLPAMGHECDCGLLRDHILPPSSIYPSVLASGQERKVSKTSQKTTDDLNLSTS

B1: GST-DGKα-EF-hand motifs (domain or fragment)
chain: not shown

How the values were obtained:
GST-DGKα-EF-hand motifs = target: B1; assay: pull-down
6xHis-TF-DGKα-C1 domains = target: T1, 6xHis-TF-DGKα-C1 domains; assay: pull-down

GST-DGKα-EF-hand motifs, sequence (P20192 103-200): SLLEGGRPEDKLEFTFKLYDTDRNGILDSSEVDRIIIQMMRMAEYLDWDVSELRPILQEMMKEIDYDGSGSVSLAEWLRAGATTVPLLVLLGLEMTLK

Row | band intensity relative to the RVH domain (GST-DGKα-EF-hand motifs) [fold] | binding result (6xHis-TF-DGKα-C1 domains) | Binder
1 | ~3 |  | EGFP-DGKα-C-terminal region (domain or fragment) not shown
2 |  | binds | B1
